As a reminder, the koff is the first-order rate constant of dissociation. A high value points to fast dissociation.

This assay addresses SARS-CoV-2 RBD (residues 319-541), C-terminal his-tag (SARS-CoV-2, UniProt P0DTC2 319-541). Kind of assay: SPR. (In SPR one partner is held on a chip, and binding of the other changes the refractive index at the surface.)

B1: P17 antibody (full-length IgG1) (antibody, V domains shown)
VH: QQLVESGGGVVQPGRSLRLSCAASGFTFSSYAMHWVRQAPGKGLEWVAVISYDGSNKYYADSVKGRFTISRDNSKNTLYLQMNSLRAEDTAVYYCARHATLMNNKDIWGQGTLVTVSS
VL: not shown
Regarding B1, the koff was determined as 0.000221 s⁻¹.

These data come from publication PMC7705443 (2020).
